Patent US20090136940

Target: T1, NF-kB p50 (NFKB1) (Homo sapiens) (UniProt P19838)
T1 sequence: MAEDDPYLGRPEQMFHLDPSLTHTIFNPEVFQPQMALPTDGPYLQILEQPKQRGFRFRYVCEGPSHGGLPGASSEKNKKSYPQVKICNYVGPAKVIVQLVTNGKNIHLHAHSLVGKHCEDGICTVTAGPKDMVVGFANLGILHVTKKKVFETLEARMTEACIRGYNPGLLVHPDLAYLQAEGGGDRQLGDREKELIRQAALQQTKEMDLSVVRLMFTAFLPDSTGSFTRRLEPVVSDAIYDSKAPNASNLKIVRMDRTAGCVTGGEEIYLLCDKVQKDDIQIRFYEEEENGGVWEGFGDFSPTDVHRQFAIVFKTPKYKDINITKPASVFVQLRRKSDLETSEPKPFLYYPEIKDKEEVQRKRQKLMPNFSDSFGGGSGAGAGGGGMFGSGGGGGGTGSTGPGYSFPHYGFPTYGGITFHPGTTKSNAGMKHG
Assay: EMSA
Settings: saturating p50 monomer (200 nM)

Sequence	binding signal (% fluorescence co-migrating with p50) (internucleoside phosphotriester triethylene glycol amino linker after T8 of SEQ 1)	binding signal (% fluorescence co-migrating with p50) (internucleoside phosphotriester triethylene glycol amino linker after T12 of SEQ 2, truncated site)
CGGAAAGTCCCTCATAGCT (double strand) [I (ODN2)/Cy5.5-XIX (ODN3)]	94	
TGGAAAGCTTTTTACAGTT (double strand) [ODN4/Cy5.5-ODN5]		63
